Laboratory results published in patent publication US20060140929A1 (Merck KGaA, published 2006).
Substitutions are numbered along the chain they refer to. Numbers in names are those of the source.

B1: hirudin mutein M 2 (I29R L30H) (other)
chain: VVYTDCTESGQNLCLCEGSVVCGQGNKCRHGSDGEKNQCVTGEGTPKPESHNDGDFEEIPEEYLQ
B2: hirudin mutein M 34 (I29T L30Q) (other)
chain: B1 chain with R29T, H30Q
B3: hirudin mutein M 45 (V21K) (other)
chain: B1 chain with V21K, R29I, H30L
B4: hirudin mutein M 43 (V21G) (other)
chain: B1 chain with V21G, R29I, H30L
B5: hirudin mutein M 31 (I29S L30T) (other)
chain: B1 chain with R29S, H30T
B6: hirudin mutein M 36 (I29T L30T) (other)
chain: B1 chain with R29T, H30T
B7: hirudin mutein M 44 (V21H) (other)
chain: B1 chain with V21H, R29I, H30L
B8: hirudin mutein M 42 (V21A) (other)
chain: B1 chain with V21A, R29I, H30L
B9: hirudin mutein M 24 (I29R L30Q) (other)
chain: B1 chain with H30Q
B10: hirudin mutein M 32 (I29T L30A) (other)
chain: B1 chain with R29T, H30A
B11: hirudin mutein M 26 (I29R L30T) (other)
chain: B1 chain with H30T
B12: hirudin mutein M 28 (I29S L30K) (other)
chain: B1 chain with R29S, H30K
B13: hirudin mutein M 23 (I29R L30K) (other)
chain: B1 chain with H30K
B14: hirudin mutein M 11 (I29R L30R V40T) (other)
chain: B1 chain with H30R, V40T
B15: hirudin mutein M 35 (I29T L30R) (other)
chain: B1 chain with R29T, H30R
B16: hirudin mutein M 30 (I29S L30R) (other)
chain: B1 chain with R29S, H30R
B17: hirudin mutein M 29 (I29S L30Q) (other)
chain: B1 chain with R29S, H30Q
B18: hirudin mutein M 33 (I29T L30K) (other)
chain: B1 chain with R29T, H30K
B19: hirudin mutein M 25 (I29R L30R) (other)
chain: B1 chain with H30R
B20: hirudin mutein M 27 (I29S L30A) (other)
chain: B1 chain with R29S, H30A

What follows are binders tested against thrombin (assay: cell-based or functional assay).

Binder | Relative Activity (ratio of variant IC50/WT IC50), chromogenic thrombin inhibition assay [ratio]
B1 | 1.2
B2 | 2.4
B3 | 0.9
B4 | 1
B5 | 1.1
B6 | 1.8
B7 | 0.74
B8 | 0.93
B9 | 1
B10 | 1.67
B11 | 1
B12 | 1.5
B13 | 0.93
B14 | 0.7
B15 | 2.3
B16 | 2.5
B17 | 2
B18 | 1.6
B19 | 1
B20 | 1.34
